Test results reported in US20190106487A1 (Sanofi, published 2019).

T1: human IL-1RAcP on 293T/17-FR cells (human, UniProt Q9NPH3 21-570)
T1 sequence (looked up): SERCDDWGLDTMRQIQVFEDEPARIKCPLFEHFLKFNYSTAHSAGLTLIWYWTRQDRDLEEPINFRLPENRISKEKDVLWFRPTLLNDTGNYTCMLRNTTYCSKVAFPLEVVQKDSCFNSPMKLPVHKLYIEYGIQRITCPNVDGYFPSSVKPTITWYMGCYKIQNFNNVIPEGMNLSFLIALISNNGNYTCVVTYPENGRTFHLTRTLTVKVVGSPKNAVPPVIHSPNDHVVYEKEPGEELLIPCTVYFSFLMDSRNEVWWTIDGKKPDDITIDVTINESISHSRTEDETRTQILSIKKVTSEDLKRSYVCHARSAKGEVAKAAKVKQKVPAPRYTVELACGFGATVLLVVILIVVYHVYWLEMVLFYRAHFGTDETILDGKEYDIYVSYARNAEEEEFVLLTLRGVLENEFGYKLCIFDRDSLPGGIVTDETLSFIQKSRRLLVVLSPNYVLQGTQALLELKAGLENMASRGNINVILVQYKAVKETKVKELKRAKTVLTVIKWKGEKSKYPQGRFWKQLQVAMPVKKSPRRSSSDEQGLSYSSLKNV

T2: mIL1RAcP-Fc (murine, UniProt Q61730 21-359)
T2 construct: also called P013_04; P013-04
T2 sequence (looked up): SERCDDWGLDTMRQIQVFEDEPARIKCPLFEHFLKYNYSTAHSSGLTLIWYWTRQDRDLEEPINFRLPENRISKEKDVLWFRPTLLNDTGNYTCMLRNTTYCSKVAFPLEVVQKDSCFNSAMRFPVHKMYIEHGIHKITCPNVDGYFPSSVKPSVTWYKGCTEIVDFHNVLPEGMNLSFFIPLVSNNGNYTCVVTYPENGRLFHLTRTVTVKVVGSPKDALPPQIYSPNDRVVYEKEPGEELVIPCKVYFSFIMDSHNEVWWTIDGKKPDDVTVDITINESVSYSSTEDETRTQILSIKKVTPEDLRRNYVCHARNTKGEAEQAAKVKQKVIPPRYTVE

T3: rhIL-1RAcP/Fc Chimera (human, UniProt Q9NPH3 21-359)
T3 construct: also called P013_03; P013-03
T3 sequence (looked up): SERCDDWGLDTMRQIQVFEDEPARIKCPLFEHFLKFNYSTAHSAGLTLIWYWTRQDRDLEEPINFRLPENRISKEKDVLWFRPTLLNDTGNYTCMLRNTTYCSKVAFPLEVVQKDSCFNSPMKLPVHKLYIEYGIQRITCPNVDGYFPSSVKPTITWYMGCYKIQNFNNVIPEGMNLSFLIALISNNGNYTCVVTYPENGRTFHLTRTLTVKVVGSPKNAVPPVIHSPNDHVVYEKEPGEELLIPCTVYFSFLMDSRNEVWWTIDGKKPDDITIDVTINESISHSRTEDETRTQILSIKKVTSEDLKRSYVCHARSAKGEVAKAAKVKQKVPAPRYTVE


Columns and labels:
[1] = molecular target: T1, human IL-1RAcP on 293T/17-FR cells; assay: cell-based or functional assay
[2] = molecular target: T2, mIL1RAcP-Fc; assay: ELISA, recombinant purified mAb
[3] = molecular target: T3, rhIL-1RAcP/Fc Chimera; assay: ELISA, primary supernatant, coated hu-IL-1RAcP-Fc
In short: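 Plates coated with 0.5 μg/mL Fc-tagged human IL-1RAcP; rabbit B-cell supernatant antibodies detected by peroxidase anti-rabbit IgG Fab2 and TMB, absorbance 450/620 nm. Parallel IL12Rβ1-Fc coating served as counterscreen to exclude tag binders.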

[4] = molecular target: T2, mIL1RAcP-Fc; assay: ELISA, primary supernatant, coated mu-IL-1RAcP-Fc
[5] = molecular target: T3, rhIL-1RAcP/Fc Chimera; assay: ELISA, recombinant purified mAb

Binder | functional reporter gene assay (% inhibition), 0.04 µg/mL mAb [1] [%] | functional reporter gene assay (% inhibition), 0.2 µg/mL mAb [1] [%] | functional reporter gene assay (% inhibition), 1 µg/mL mAb [1] [%] | functional reporter gene assay (% inhibition), 5 µg/mL mAb [1] [%] | primary supernatant functional assay (% inh.), NF-kB luciferase reporter [1] [%] | EC50 [2] [µg/mL] | hu-IL1RaP ELISA (OD) [3] [OD] | mu-IL1RaP ELISA (OD) [4] [OD] | EC50 [5] [µg/mL]
P013.S.02.B.F05 (antibody, V domains shown, rabbit monoclonal antibody; also called P013.A.00109.B04) VH: RSLEESGGDLVKPGTSLTLTCTASGFSFSGNYYMCWVRQAPGKGLEWIACIVVGSGGNTYYAGWAKRRFTISKTSSTTVTLQMTSLTAADTATYFCASGSYDDYGDYWYFTLWGQGTLVTVSS VL: AIDMTQTPSPASAGVGDTVTINCQASENIYNFLAWYQQKPGHSPKLLIYVASKLASGVPSRFKGSGSGTQFTLTISDVQSDDAATYYCQQTYRYNDGDTAFGGGTEVVVK | 15 | 5 | 11 | -2 | 40 | 0.044 | 0.1 | 0.4 | 
P013.S.01.B.A02 (antibody, V domains shown, rabbit monoclonal antibody; also called P013.A.00003.H11) VH: QSVEESGGRLVTPGTPLTLTCTVSGIDLSSYAMGWVRQAPGKGLEYIGVITSSATTYYASWAKGRFTISKTSSTTVDLRVTSLTTEDTATYFCARGGPGYSTNTHYAFDPWGPGTLVTVSS VL: AFEMTQTPSSVSEPVGGTVTIKCQASQSIYIYLSWYQQKPGQRPKLLIYDASKLASGVPSRFSGSGSGTEFTLTISGVQSDDAATYYCQQGATTYNVDNVFGGGTEVVVK | 46 | 94 | 95 | 98 | 92 | 0.025 | 3.5 | 1.2 | 0.042
P013.S.01.B.C03 (antibody, V domains shown, rabbit monoclonal antibody; also called P013.A.00133.D11) VH: QSVEESGGRLVTPGTPLTLTCTVSGIDLSNYAMSWVRQAPGKGLEWIGSVISGGSTYYATWARGRFTISKSSTTVDLKMTSLTTEDTATYFCARGCPGYNGDKYTFDLWGPGTLVTVSS VL: AFEMTQTPSSVSEPVGGTVTIKCQASQSIYNYLSWYQQKPGQRPKLLIYRASTLASGVPSRFKGSGSGTEFTLTISGVESADAATYYCQQGATSYDIENPFGGGTEVVVK | 54 | 77 | 84 | 90 | 83 | 0.332 | 3.2 | 2.3 | 0.032
P013.S.01.B.F06 (antibody, V domains shown, rabbit monoclonal antibody; also called P013.A.00045.E09) VH: QSVEESGGRLVTPGTPLTLTCTVSGIDLSSDAVGWVRQAPGKGLEYIGIIVSSGETFYASWARGRCTISKTSSTTVDLRITRLTTEDTATYFCARGGPGYSFDTEYAFDPWGPGTLVTVSS VL: AFEMTQTPASVEVAVGGTVTINCQASQSIGSWLSWYQQKVGQRPKLLISRASTLASGVPSRFKGSGSGTEYTLTISGVQSDDAATFYCQQGATTYDVDNVFGGGTEVVVR | 41 | 52 | 68 | 70 | 75 | 0.028 | 2.8 | 3.4 | 0.039
P013.S.02.B.D05 (antibody, V domains shown, rabbit monoclonal antibody; also called P013.A.00086.B09) VH: QQQLVESGGGLVKPGASLTLTCKASGFSFSSGYYMCWVRQAPGKGLEWIACIGMGSGKTYYASWAKGRFTISKTSSTTVTLQMTSLTAADTATYFCARKDGSGNEHYNLWGPGTLVTVSS VL: DIVMTQTPASVEAAVGGTVTIRCQASQSISSYLAWYQRKPGQPPKVLIYKASTLASGVSSRFKGSGSGTEYTLTISDLESADAATYYCQQGYASSGVDNVFGGGTEVVVK | 1 | 19 | 20 | 13 | 42 | 0.206 | 3.2 | 3.3 | 
P013.S.02.B.E04 (antibody, V domains shown, rabbit monoclonal antibody; also called P013.A.00088.A02) VH: QSLEESGGDLVKPGASLTLTCTASGFSLSSGGMSWVRQAPGKGLGWIGYINTGSGSTYYASWVNGRFTISKTSSTTVSLQMTSLTAADTATYFCAGGLPSDLWGPGTLVTVSS VL: DIVMTQTPSSVEAAVGGTVTIKCQASQSINSRLAWYQQKPGQPPKLLIYSASTLASGVSSRFKGSGSGTEFTLTISDLESADGATYYCLSHYLTSSSSYGDAFGGGTEVVVK | 11 | 9 | 8 | -6 | -37 | 0.385 | 3.6 | 3.5 | 
P013.S.02.B.G02 (antibody, V domains shown, rabbit monoclonal antibody; also called P013.A.00014.C07) VH: QSLEESGGDLVKPGASLTLTCTASGFSLSSGGMTWVRQAPGKGLEWIGYINTGSGRTYYASWAKGRFIISKTSSTTVSLQMTSLTAADTATYFCAGGLPSDLWGPGTLVTVSS VL: DIVMTQTPSSVEAAVGGTVTIKCQASQSINSRLAWYQQKPGQPPKLLIYDASTLASGVSSRFSGSGTEFTLTISDLESADGATYYCLSHYLTSSSSYGNAFGGGTEVVVK | -2 | 0 | 5 | 0 | -39 | 0.082 | 3.6 | 3.4 | 0.493
P013.S.02.B.H04 (antibody, V domains shown, rabbit monoclonal antibody; also called P013.A.00029.F11) VH: QSVEESGGRLVKPDETLTLTCTVSGIDLSSYAMGWVRQAPGKGLEYIGIISSSGRTYYANWAKGRFTISKASSTTVDLKITSPTTEDTATYFCARLITVDYYIYDYFNLWGQGTLVTVSS VL: AYDMTQTPASVEAAVGGTVTIKCQASQSISSYLSWYQQKPGQPPKLLIYGASTLASGVPSRFKGSGSGTEYTLTISGVESDDAATYYCQQGYSYNNVDNTFGGGTEVVVK | 7 | -6 | 15 | 4 | 52 | 0.644 | 3.2 | 1.7 | 
P013.S.01.B.E05 (antibody, V domains shown, rabbit monoclonal antibody; also called P013.A.00086.F02) VH: QSLEESGGDLVKPGASLTLTCTASGISFSSSDFMCWVRQAPGKGLEWIACIYAGSSVSIYYATWAKGRFTISKASSTTVTLQMASLTVADTATYFCARSTGSVGRGFNLWGQGTLVTVSS VL: AQVLTQTPSPVSAAVGGTVTISCQASQSVYNSNHLSWYQQKPGQPPRLLIYSASTLASGVPSRFKGSGSGTQFTLTISGVQSDDAATYYCQGEFSCVSADCIAFGGGTEVVVK | 26 | 61 | 81 | 93 | 98 |  | 3.6 | -0.1 | 0.966
